From the supplement of paper PMC12855868

B1: library; numbered along this chain (parent)
chain: MAAAGGARLLRAASAVLGGPAGRWLHHAGSRAGSSGLLRNRGPGGSAEASRSLSVSARARSSSEDKITVHFINRDGETLTTKGKVGDSLLDVVVENNLDIDGFGACEGTLACSTCHLIFEDHIYEKLDAITDEENDMLDLAYGLTDRSRLGCQICLTKSMDNMTVRVPETVADARQSIDVGKTS

Variants of: B1
Test: scaled log2 fold change in cell abundance, elesclomol vs control (0 = silent mean, 1 = nonsense mean) (scaled log2 ratio); higher = higher viability under elesclomol (loss of FDX1 cuproptosis function)
Settings: glucose 10 mM
[1] = with ABC1 FDX1 KO, elesclomol 5 nM, 14 days
[2] = with HEK293T FDX1 KO, elesclomol 40 nM, 11 days
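Also: variant abundance is its share of total variant reads in each endpoint sample, from next-generation sequencing of the integrated ORF PCR-amplified out of genomic DNA.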

Variant	scaled log2 fold change [1]	scaled log2 fold change [2]
MAAAGGARLLRAASAVLGGPAGRWLHHAGSRAGSSGLLRNRGPGGSAEASRSLSVSARARSSSEDKITVHFINRDGETLTTKGKVGDSLLDVVVENNLDIDGFGACEGTLACSTCHLIFEDHIYEKLDAITDEENDMLDLAYGLTDRSRLGCQICLTKSMDNMTVRAPETVADARQSIDVGKTS [V167A]	-0.622	0.856
MAAAGGARLLRAASAVLGGPAGRWLHHAGSRAGSSGLLRNRGPGGSAEASRSLSVSARARSSSEDKITVHFINRDGETLTTKGKVGDSLLDVVVENNLDIDGFGACEGTLACSTCHLIFEDHIYEKLDAITDEENDMLDLAYGLTDRSRLGCQICLTKSMDNMTVRCPETVADARQSIDVGKTS [V167C]	-0.124	0.517
MAAAGGARLLRAASAVLGGPAGRWLHHAGSRAGSSGLLRNRGPGGSAEASRSLSVSARARSSSEDKITVHFINRDGETLTTKGKVGDSLLDVVVENNLDIDGFGACEGTLACSTCHLIFEDHIYEKLDAITDEENDMLDLAYGLTDRSRLGCQICLTKSMDNMTVRDPETVADARQSIDVGKTS [V167D]	0.489	0.995
MAAAGGARLLRAASAVLGGPAGRWLHHAGSRAGSSGLLRNRGPGGSAEASRSLSVSARARSSSEDKITVHFINRDGETLTTKGKVGDSLLDVVVENNLDIDGFGACEGTLACSTCHLIFEDHIYEKLDAITDEENDMLDLAYGLTDRSRLGCQICLTKSMDNMTVREPETVADARQSIDVGKTS [V167E]	0.136	0.156
MAAAGGARLLRAASAVLGGPAGRWLHHAGSRAGSSGLLRNRGPGGSAEASRSLSVSARARSSSEDKITVHFINRDGETLTTKGKVGDSLLDVVVENNLDIDGFGACEGTLACSTCHLIFEDHIYEKLDAITDEENDMLDLAYGLTDRSRLGCQICLTKSMDNMTVRFPETVADARQSIDVGKTS [V167F]	0.518	
MAAAGGARLLRAASAVLGGPAGRWLHHAGSRAGSSGLLRNRGPGGSAEASRSLSVSARARSSSEDKITVHFINRDGETLTTKGKVGDSLLDVVVENNLDIDGFGACEGTLACSTCHLIFEDHIYEKLDAITDEENDMLDLAYGLTDRSRLGCQICLTKSMDNMTVRGPETVADARQSIDVGKTS [V167G]	0.269	0.997
MAAAGGARLLRAASAVLGGPAGRWLHHAGSRAGSSGLLRNRGPGGSAEASRSLSVSARARSSSEDKITVHFINRDGETLTTKGKVGDSLLDVVVENNLDIDGFGACEGTLACSTCHLIFEDHIYEKLDAITDEENDMLDLAYGLTDRSRLGCQICLTKSMDNMTVRHPETVADARQSIDVGKTS [V167H]	0.217	1.13
MAAAGGARLLRAASAVLGGPAGRWLHHAGSRAGSSGLLRNRGPGGSAEASRSLSVSARARSSSEDKITVHFINRDGETLTTKGKVGDSLLDVVVENNLDIDGFGACEGTLACSTCHLIFEDHIYEKLDAITDEENDMLDLAYGLTDRSRLGCQICLTKSMDNMTVRIPETVADARQSIDVGKTS [V167I]	-0.468	0.138
MAAAGGARLLRAASAVLGGPAGRWLHHAGSRAGSSGLLRNRGPGGSAEASRSLSVSARARSSSEDKITVHFINRDGETLTTKGKVGDSLLDVVVENNLDIDGFGACEGTLACSTCHLIFEDHIYEKLDAITDEENDMLDLAYGLTDRSRLGCQICLTKSMDNMTVRKPETVADARQSIDVGKTS [V167K]	0.318	0.00856
MAAAGGARLLRAASAVLGGPAGRWLHHAGSRAGSSGLLRNRGPGGSAEASRSLSVSARARSSSEDKITVHFINRDGETLTTKGKVGDSLLDVVVENNLDIDGFGACEGTLACSTCHLIFEDHIYEKLDAITDEENDMLDLAYGLTDRSRLGCQICLTKSMDNMTVRLPETVADARQSIDVGKTS [V167L]	-0.207	-0.904
MAAAGGARLLRAASAVLGGPAGRWLHHAGSRAGSSGLLRNRGPGGSAEASRSLSVSARARSSSEDKITVHFINRDGETLTTKGKVGDSLLDVVVENNLDIDGFGACEGTLACSTCHLIFEDHIYEKLDAITDEENDMLDLAYGLTDRSRLGCQICLTKSMDNMTVRMPETVADARQSIDVGKTS [V167M]	0.222	-0.0856
MAAAGGARLLRAASAVLGGPAGRWLHHAGSRAGSSGLLRNRGPGGSAEASRSLSVSARARSSSEDKITVHFINRDGETLTTKGKVGDSLLDVVVENNLDIDGFGACEGTLACSTCHLIFEDHIYEKLDAITDEENDMLDLAYGLTDRSRLGCQICLTKSMDNMTVRNPETVADARQSIDVGKTS [V167N]	0.111	-0.228
MAAAGGARLLRAASAVLGGPAGRWLHHAGSRAGSSGLLRNRGPGGSAEASRSLSVSARARSSSEDKITVHFINRDGETLTTKGKVGDSLLDVVVENNLDIDGFGACEGTLACSTCHLIFEDHIYEKLDAITDEENDMLDLAYGLTDRSRLGCQICLTKSMDNMTVRPPETVADARQSIDVGKTS [V167P]	0.251	-0.184
MAAAGGARLLRAASAVLGGPAGRWLHHAGSRAGSSGLLRNRGPGGSAEASRSLSVSARARSSSEDKITVHFINRDGETLTTKGKVGDSLLDVVVENNLDIDGFGACEGTLACSTCHLIFEDHIYEKLDAITDEENDMLDLAYGLTDRSRLGCQICLTKSMDNMTVRQPETVADARQSIDVGKTS [V167Q]	0.218	1.05
MAAAGGARLLRAASAVLGGPAGRWLHHAGSRAGSSGLLRNRGPGGSAEASRSLSVSARARSSSEDKITVHFINRDGETLTTKGKVGDSLLDVVVENNLDIDGFGACEGTLACSTCHLIFEDHIYEKLDAITDEENDMLDLAYGLTDRSRLGCQICLTKSMDNMTVRRPETVADARQSIDVGKTS [V167R]	0.264	-0.286
MAAAGGARLLRAASAVLGGPAGRWLHHAGSRAGSSGLLRNRGPGGSAEASRSLSVSARARSSSEDKITVHFINRDGETLTTKGKVGDSLLDVVVENNLDIDGFGACEGTLACSTCHLIFEDHIYEKLDAITDEENDMLDLAYGLTDRSRLGCQICLTKSMDNMTVRSPETVADARQSIDVGKTS [V167S]	0.152	0.0174
MAAAGGARLLRAASAVLGGPAGRWLHHAGSRAGSSGLLRNRGPGGSAEASRSLSVSARARSSSEDKITVHFINRDGETLTTKGKVGDSLLDVVVENNLDIDGFGACEGTLACSTCHLIFEDHIYEKLDAITDEENDMLDLAYGLTDRSRLGCQICLTKSMDNMTVRTPETVADARQSIDVGKTS [V167T]	0.214	0.998
